Reference: publication PMC3402909 (Biopolymers, 2011)
One block for each molecule: values may come before it. Where a SMILES comes first, the peptide text is derived from it.

Columns and labels:
Grb2-Sos1 association = Grb2-Sos1 association (Rattus norvegicus, UniProt P62994); assay: Blockade of Grb2-Sos1 association in PC12 cell lysates; assay type: biochemical, human; details: 1 μM peptide, PC12 cell lysate
[1] = target: Sos1 WT peptide 1 PEP (Homo sapiens) (UniProt Q07889); details: cited from earlier work
Grb2 SH3 N-domain = assay: other fluorescence titration

inhibition of Grb2-Sos1 association (Grb2-Sos1 association): little inhibition
Molecule: CC(=O)N1CCC[C@H]1C(=O)N[C@@H](CCCNC(=N)N)C(=O)N[C@H](C(=O)N1CCC[C@H]1C(=O)N1CCC[C@H]1C(=O)N1CCC[C@H]1C(=O)N1CCC[C@H]1C(=O)N[C@H](C(=O)N[C@@H](CCCNC(=N)N)C(=O)N[C@@H](CCCNC(=N)N)C(N)=O)C(C)C)C(C)C [Peptide 13, Ac-P-R-V-P-P-P-P-V-R-R-NH2] (Ac-PRVPPPPVRR-NH2)

Molecule: Grb2 N-terminal SH3 (from UniProt P62993)
Kd [1]: 39 µM

Kd (Grb2 SH3 N-domain): 173 µM
B1: scrambled peptide Ac-P-R-V-P-P-P-P-V-R-R-NH2 (13) (peptide)
peptide: Ac-PRVPPPPVRR-NH2
